# Data as given in patent US20220098635A1.
# What was measured:
# Thiolated streptavidin [1] = target: Thiolated streptavidin (UniProt P22629); experiment: single-molecule conductance distribution (counts against Log G, fitted peaks); two-Avitag phi29 polymerase without flexible linker wired with biotin-streptavidin; the same distribution as 52 in Fig. 5B
# Thiolated streptavidin [2] = target: Thiolated streptavidin (UniProt P22629); experiment: single-molecule conductance distribution (counts against Log G, fitted peaks); bis-biotinylated phi29 polymerase in a junction of palladium electrodes coated with thiolated streptavidin
# Sequence of Thiolated streptavidin (P22629 37-163 limits assumed): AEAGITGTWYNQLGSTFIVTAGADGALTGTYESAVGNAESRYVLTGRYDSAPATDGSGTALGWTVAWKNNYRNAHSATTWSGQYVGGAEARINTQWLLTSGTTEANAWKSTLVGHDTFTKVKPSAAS
substance,measurement,setting,value
bis-biotinylated ϕ29 polymerase (from UniProt P03680 1-111; P03680 112-279; P03680 280-575) (enzyme),conductance peak (circled feature 1103),Thiolated streptavidin [1],3.98 nS
same,conductance peak (circled feature 53),Thiolated streptavidin [2],3.98 nS
